Measurements taken from the RNAGym collection of RNA variant scans (doi:10.1073/pnas.2313332121).
Fewer inactive variants are shown than the library holds.

B1: TPR 5TU (parent)
chain: GGAUCUUCUCGAUCUAACAAAAAAGACAAAUCUGCCACAAAGCUUGAGAGCAUCUUCGGAUGCAGAGGCGGCAGCCUUCGGUGGCGCGAUAGCGCCAACGUUCUCAACUAUGACACGCAAAACGCGUGCUCCGUUGAAUGGAGUUUAUCAUG

Variants of: B1
Test: polymerase ribozyme fitness, log enrichment relative to wild type (log ratio); higher = more active; in vitro selection for triplet polymerase activity
Procedure, shortened: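 One round of in vitro selection, in triplicate, was applied to PCR-built, transcribed mutant libraries of each subunit of a heterodimeric triplet polymerase ribozyme. The steps were annealing with a biotinylated primer, partner subunit and triplets, incubation frozen at −7 °C, gel excision of extended constructs, streptavidin-bead capture and RT-PCR. Fitness is the logarithm, base 2, of genotype enrichment over wild-type enrichment from inverse-variance-weighted replicate averages of Illumina-sequenced inputs and outputs, keeping genotypes with ≥10 input reads and ≥1 read per output.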

| Variant | polymerase ribozyme fitness (log ratio) |
| --- | --- |
| GGAUCUUCUCGAUCUAACAAAAAAGACAAAUCUGCCACAAAGCUUGAGAGCAUCUUCGGAUGCAGAGGCGGCAGCCUUCGGUGGCUCGAUAGCGCCAACGUUCUCAACUAUGACACGCAAAACGCGUGCUCCGUUGGAUGGAGUUUAUCAUG [G86U A137G] | -3.03 |
| GGAUCUUCUCGAUCUAACAAAAAAGACAAAUCUGCCACAAAGCUUGAGAGCAUCUUCGGAUGCAGAGGCGGCAGCCUUCGGUGGCCCGAUAGCGCCAACGUUCACAACUAUGACACGCAAAACGCGUGCUCCGUUGAAUGGAGUUUAUCAUG [G86C U104A] | -2.46 |
| GGAUCUUCUCGAUCUAACAAAAAAGACAAAUCUGCCACAAAGCUUGAGAGCAUCUUCGGAUGCAGAGGCGGCAGCCUUCGGUGGCUCGAUAGCGCCAACGUUCACAACUAUGACACCCAAAACGCGUGCUCCGUUGAAUGGAGUUUAUCAUG [G86U U104A G117C] | -2.37 |
| GGAUCUUCUCGAUCUAACAAAAAAGACAAAUCUGCCACAAAGCUUGAGAGCAUCUUCGGAUGCAGAGGCGGCAGCCUUCGGUGGCUCAAUAGCGCCAACGUUCUCAACUAUGACACGCAAAACGCGUGCUCCGUUGAAUGGAGUUUAUCCUG [G86U G88A A150C] | ≤ -4.2 |
| GGAUCUUCUCGAUCUAACAAAAAAGACAAAUCUGCCACAAAGCUUGAGAGCAUCUUCGGAUGCAGAGGCGGCAGCCUUCGGUGGCUCUAUAGCUCCAACGUUCUCAACUAUGACACGCAAAACGCGUGCUCCGUUGAAUGGAGUUUAUCUUG [G86U G88U G94U A150U] | ≤ -4.2 |
| GGAUCUUCUCGAUCUAACAAAAAAGACAAAUCUGCCACAAAGCUUGAGAGCAUCUUCGGAUGCAGAGGCGGCAGCCUUCGGUGGCUCCAUAGCGCCAACGUUCUCAACUAUGACACGCCAAACGCGAGCUCCGUUGAAUGGAGGUUAUCAUG [G86U G88C A119C U127A U144G] | ≤ -4.2 |
| GGAUCUUCUCGAUCUAACAAAAAAGACAAAUCUGCCACAAAGCUUGAGAGCAUCUUCGGAUGCAGAGGCGGCAGCCUUCGGUGGCUCGUUAGCGCCAACGUUCUCAACUAUGUCACGCAAAACGCGUGCUGCGUUGAAUGGAGUUUAUCAUG [G86U A89U A113U C131G] | ≤ -4.2 |
| GGAUCUUCUCGAUCUAACAAAAAAGACAAAUCUGCCACAAAGCUUGAGAGCAUCUUCGGAUGCAGAGGCGGCAGCCUUCGGUGGCCCGAUAGCGCCAACGUUCUCAACGAUGACACGGAAAACGCGUGCUCCGUUGAAUGGAGUUUAUCAUG [G86C U109G C118G] | -3.5 |
| GGAUCUUCUCGAUCUAACAAAAAAGACAAAUCUGCCACAAAGCUUGAGAGCAUCUUCGGAUGCAGAGGCGGCAGCCUUCGGUGGCUCGAUAGCGCCAACGCUCUCAACUAUGACACGUAAAACGCGUGCUCCGUUGAAUGGAGUUUAUCAUG [G86U U101C C118U] | -1.56 |
| GGAUCUUCUCGAUCUAACAAAAAAGACAAAUCUGCCACAAAGCUUGAGAGCAUCUUCGGAUGCAGAGGCGGCAGCCUUCGGUGGCUCGAGAGCGCCAUCGUUCUCAACUAUGACACGCAAAACGCGUGCUCCGUUGAAUGGACUUUAUCAUG [G86U U90G A98U G143C] | ≤ -4.2 |
| GGAUCUUCUCGAUCUAACAAAAAAGACAAAUCUGCCACAAAGCUUGAGAGCAUCUUCGGAUGCAGAGGCGGCAGCCUUCGGUGGCCCGAUAGCGCCAACGGUCUCAACUAUGACACGCAAAACUCGUGCUCCGUUGAAUGGAGUUUAUCAUA [G86C U101G G124U G152A] | -4.15 |
| GGAUCUUCUCGAUCUAACAAAAAAGACAAAUCUGCCACAAAGCUUGAGAGCAUCUUCGGAUGCAGAGGCGGCAGCCUUCGGUGGCUCGAUAGCGCCAACGUUCUCAACUAUGACACGUAAAACGCGUGCUCCGUUGAAUGGAGUUUAUCAUG [G86U C118U] | -1.69 |
| GGAUCUUCUCGAUCUAACAAAAAAGACAAAUCUGCCACAAAGCUUGAGAGCAUCUUCGGAUGCAGAGGCGGCAGCCUUCGGUGGCUCGAUAGCGCCAACGUUCUCAACUAUGACACGCAAAACGCGUGCUCCGUUGAAUGGAAUUUAUCAUG [G86U G143A] | -2.53 |
| GGAUCUUCUCGAUCUAACAAAAAAGACAAAUCUGCCACAAAGCUUGAGAGCAUCUUCGGAUGCAGAGGCGGCAGCCUUCGGUGGCUCGAUAGCGCCAACGUUCUCAACUAUGACACGCGAAACGCGUGCUCCGUUGAAUGGAGUUUAUCAUG [G86U A119G] | -1.54 |
| GGAUCUUCUCGAUCUAACAAAAAAGACAAAUCUGCCACAAAGCUUGAGAGCAUCUUCGGAUGCAGAGGCGGCAGCCUUCGGUGGCUCGAUAGCGCCAACGUUCUCAACUAUGACACGCAAAACGUGUGCUCCGUUGAAUGGAGUUUAUCAUG [G86U C125U] | -2.02 |
| GGAUCUUCUCGAUCUAACAAAAAAGACAAAUCUGCCACAAAGCUUGAGAGCAUCUUCGGAUGCAGAGGCGGCAGCCUUCGGUGGCUCGAUAGCGCAAACGUUCUCAACUAUGACACGCAAAACGCGUGCUCCGUUGAAUGGAGUUUAUCAUG [G86U C96A] | -2.89 |
| GGAUCUUCUCGAUCUAACAAAAAAGACAAAUCUGCCACAAAGCUUGAGAGCAUCUUCGGAUGCAGAGGCGGCAGCCUUCGGUGGCUCGAUAGCGCCAACGUUCUCAACUAUGACACGCAAAACGCGUGCUCCGUUGAAUGGGGUUUAUCAUG [G86U A142G] | -2.35 |
| GGAUCUUCUCGAUCUAACAAAAAAGACAAAUCUGCCACAAAGCUUGAGAGCAUCUUCGGAUGCAGAGGCGGCAGCCUUCGGUGGCUCGAUAGCGCCAACGUUCUCAGCUAUGACACGCAAAACGCGUGCUCCGUUGAAUGGACUUUAUCAAG [G86U A107G G143C U151A] | ≤ -4.2 |
| GGAUCUUCUCGAUCUAACAAAAAAGACAAAUCUGCCACAAAGCUUGAGAGCAUCUUCGGAUGCAGAGGCGGCAGCCUUCGGUGGCUCGAUAGGGCCAACGUUCUCGACUAUGACACGCAAAACGCGUGCUCUGUUGAAUGGAGUUUAACAUG [G86U C93G A106G C132U U148A] | -3.05 |

| Variant | polymerase ribozyme fitness (log ratio) |
| --- | --- |
| GGAUCUUCUCGAUCUAACAAAAAAGACAAAUCUGCCACAAAGCUUGAGAGCAUCUUCGGAUGCAGAGGCGGCAGCCUUCGGUGGCUCGAUAGCGCCAACGUUCUCAACUAUGACACGCAAAACGCGUGCUCCGUUGAAUGGAGUUUAUAAUG [G86U C149A] | ≤ -4.2 |
| GGAUCUUCUCGAUCUAACAAAAAAGACAAAUCUGCCACAAAGCUUGAGAGCAUCUUCGGAUGCAGAGGCGGCAGCCUUCGGUGGCUCGAUAGGGCCAACGUUCUCAACUAUGACACGCAAAACGCGUGCUCCGUUGAAUGGAGUUUAUCAUG [G86U C93G] | -1.28 |
| GGAUCUUCUCGAUCUAACAAAAAAGACAAAUCUGCCACAAAGCUUGAGAGCAUCUUCGGAUGCAGAGGCGGCAGCCUUCGGUGGCUCGAUAGCGCCAACGUGCUCAACUAUGACACGCAAAACGCGUGCUCCGUUGAAUGGAGUUUAUCUUG [G86U U102G A150U] | -3.59 |
| GGAUCUUCUCGAUCUAACAAAAAAGACAAAUCUGCCACAAAGCUUGAGAGCAUCUUCGGAUGCAGAGGCGGCAGCCUUCGGUGGCUCGAUAGCGCCAACGUUCUCAAUUAUGACACGCAAAACGCGUGCUCCGUUGAAUGGAGUUUAUCAUG [G86U C108U] | -4.14 |
| GGAUCUUCUCGAUCUAACAAAAAAGACAAAUCUGCCACAAAGCUUGAGAGCAUCUUCGGAUGCAGAGGCGGCAGCCUUCGGUGGCUCGAUAUCGCCAACGUUCUCAACUAUGACACGCAAAACGCGUGCUCCGUUGAAUGGAGUUUAUCAUG [G86U G92U] | -1.95 |
| GGAUCUUCUCGAUCUAACAAAAAAGACAAAUCUGCCACAAAGCUUGAGAGCAUCUUCGGAUGCAGAGGCGGCAGCCUUCGGUGGCUCGAUACCGCCAACGUUCUCAACUAUGACACGCAAAACGCGUGCUCCGUUGAAUGGAGUUUAUCAUG [G86U G92C] | -2.75 |
| GGAUCUUCUCGAUCUAACAAAAAAGACAAAUCUGCCACAAAGCUUGAGAGCAUCUUCGGAUGCAGAGGCGGCAGCCUUCGGUGGCUCGAUAGCGCCAACGUUCUCAACUAUGACACGCAAAACGCGUGCUCCGUUGAAUGGAGUUUAUCAUG [G86U] | -1.62 |
| GGAUCUUCUCGAUCUAACAAAAAAGACAAAUCUGCCACAAAGCUUGAGAGCAUCUUCGGAUGCAGAGGCGGCAGCCUUCGGUGGCUCGAUAGCGCCAACGUUCUAAACUAUGACACGCAAAACGCGUGCUCCGUUGAAUGGAGUUUAUCAUG [G86U C105A] | -2.68 |
| GGAUCUUCUCGAUCUAACAAAAAAGACAAAUCUGCCACAAAGCUUGAGAGCAUCUUCGGAUGCAGAGGCGGCAGCCUUCGGUGGCUCGGUAGCGCCAACGUUCUCAACUAUGACACGCAAAACGCGUGCUCCGUUGAAUGGAGUAUAUCAUG [G86U A89G U145A] | -3.28 |
| GGAUCUUCUCGAUCUAACAAAAAAGACAAAUCUGCCACAAAGCUUGAGAGCAUCUUCGGAUGCAGAGGCGGCAGCCUUCGGUGGCUCGAGAGCGCCAACGUUAUCAACUAUGACACGCCACACGCGUGCUCCGUUGACUGGAGUUUAUCAUG [G86U U90G C103A A119C A121C A138C] | ≤ -4.2 |
| GGAUCUUCUCGAUCUAACAAAAAAGACAAAUCUGCCACAAAGCUUGAGAGCAUCUUCGGAUGCAGAGGCGGCAGCCUUCGGUGGCUCGAUAGCGCCAACGUUCUCAACUAUGACACGCAAAACGCGUGCUCCGUUGAAUGAAGUUCAUCAUG [G86U G141A U146C] | -1.62 |
| GGAUCUUCUCGAUCUAACAAAAAAGACAAAUCUGCCACAAAGCUUGAGAGCAUCUUCGGAUGCAGAGGCGGCAGCCUUCGGUGGCCCGAUAGCGCCAACGUUCUCAACUAUGACACGCAAAACGCGUGCUCCGUUGAAUGGAGUCUAUCAUG [G86C U145C] | -3.66 |
| GGAUCUUCUCGAUCUAACAAAAAAGACAAAUCUGCCACAAAGCUUGAGAGCAUCUUCGGAUGCAGAGGCGGCAGCCUUCGGUGGCUCGAUAGAACCAACGUUCUCAACUAUGACACGCAAAACGCGUGCUCCGUUGAAUGGAGUUUAUCAUG [G86U C93A G94A] | -0.505 |
| GGAUCUUCUCGAUCUAACAAAAAAGACAAAUCUGCCACAAAGCUUGAGAGCAUCUUCGGAUGCAGAGGCGGCAGCCUUCGGUGGCUCGAUAGCGCCAACUUUCUCAACUAUGACACGCAAAACGCGUGCUCCGUUGAAUGGAGUUUAUCAUG [G86U G100U] | ≤ -4.2 |
| GGAUCUUCUCGAUCUAACAAAAAAGACAAAUCUGCCACAAAGCUUGAGAGCAUCUUCGGAUGCAGAGGCGGCAGCCUUCGGUGGCUCGAUAGCGCCAACGUUCUCAACUAUGACACGCAGAACGCGUGAUCCGUUGAAUGGAGUGUAUCAUG [G86U A120G C129A U145G] | -4.13 |
| GGAUCUUCUCGAUCUAACAAAAAAGACAAAUCUGCCACAAAGCUUGAGAGCAUCUUCGGAUGCAGAGGCGGCAGCCUUCGGUGGCUCGAUAGCGCCAUCGUUCUCAACUAGGAUACGCAAAACGCGUGCUCCGUUGAAUGGAGUUUAUCAUG [G86U A98U U111G C114U] | -3.81 |
| GGAUCUUCUCGAUCUAACAAAAAAGACAAAUCUGCCACAAAGCUUGAGAGCAUCUUCGGAUGCAGAGGCGGCAGCCUUCGGUGGCUAGAUAGCGACAACGUUCACAACUAUGACACGCAAAACGCGUGCUCCGUUGAAUGGAGUUUAUCAUG [G86U C87A C95A U104A] | ≤ -4.2 |
| GGAUCUUCUCGAUCUAACAAAAAAGACAAAUCUGCCACAAAGCUUGAGAGCAUCUUCGGAUGCAGAGGCGGCAGCCUUCGGUGGCUCGCUAGCGCCAACGUUCUCAACUAUGACACGCCAAACGCGUGCUCCGUUGAAUGGAGUUUAUCAUG [G86U A89C A119C] | -3.83 |
| GGAUCUUCUCGAUCUAACAAAAAAGACAAAUCUGCCACAAAGCUUGAGAGCAUCUUCGGAUGCAGAGGCGGCAGCCUUCGGUGGCUCGAUAGCGCCAACGUUCUCAACUAUGACACGCAAAACGCGUGCUCCGUUGAAUUGAGUUUAUCAUG [G86U G140U] | -3.83 |
